The results in this text go back to US20230124669A1 (ADAGENE, published 2023).

Sequences and labels used below:
B1: TY22362 (bispecific antibody, human IgG4 S228P, kappa)
heavy: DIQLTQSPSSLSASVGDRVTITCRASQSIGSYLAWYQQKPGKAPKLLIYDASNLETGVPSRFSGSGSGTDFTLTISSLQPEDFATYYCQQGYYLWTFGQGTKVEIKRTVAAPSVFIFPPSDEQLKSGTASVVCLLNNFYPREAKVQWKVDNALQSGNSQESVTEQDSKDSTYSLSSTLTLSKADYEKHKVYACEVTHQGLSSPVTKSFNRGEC
light: EVQLVESGGGLVQPGGSLRLSCAASGFSLSTGGVGVGWIRQAPGKGLEWLALIDWADDKYYSPSLKSRLTISRDNSKNTLYLQLNSLRAEDTAVYYCARGGSDTVIGDWFAYWGQGTLVTVSSASTKGPSVFPLAPCSRSTSESTAALGCLVKDYFPEPVTVSWNSGALTSGVHTFPAVLQSSGLYSLSSVVTVPSSSLGTKTYTCNVDHKPSNTKVDKRVESKYGPPCPPCPAPEFLGGPSVFLFPPKPKDTLMISRTPEVTCVVVDVSQEDPEVQFNWYVDGVEVHNAKTKPREEQFNSTYRVVSVLTVLHQDWLNGKEYKCKVSNKGLPSSIEKTISKAKGQPREPQVYTLPPSQEEMTKNQVSLTCLVKGFYPSDIAVEWESNGQPENCYKTTPPVLDCDGSFFLYSRLTVDKSRWQEGNVFSCSVMHEALHNHYTQKSLSLSLGSGGGSGGGGSEVQLVESGGGLVQPGGSLRLSCAASGYSISSGYYWGWIRQAPGKCLEWIGIIYPSGGGTNYAQKFQGRVTISRDNSKNTLYLQLNSLRAEDTAVYYCARGGGLGFDYWGQGTLVTVSSGGGGSGGGGSGGGGSGGGGSDIQLTQSPSSLSASVGDRVTITCRASQSIPSFLNWYQQKPGKAPKLLIYAASSLQSGVPSRFSGSGSGTDFTLTISSLQPEDFATYYCQHYISWPRQFTFGCGTKVEIKR
notes: Morrison format: anti-CD137 Fab, anti-PDL1 scFv; also called CD137 × PDL1 bispecific antibody, format TYF08
B2: TY22177 (bispecific antibody, human IgG1, kappa, N297A)
heavy: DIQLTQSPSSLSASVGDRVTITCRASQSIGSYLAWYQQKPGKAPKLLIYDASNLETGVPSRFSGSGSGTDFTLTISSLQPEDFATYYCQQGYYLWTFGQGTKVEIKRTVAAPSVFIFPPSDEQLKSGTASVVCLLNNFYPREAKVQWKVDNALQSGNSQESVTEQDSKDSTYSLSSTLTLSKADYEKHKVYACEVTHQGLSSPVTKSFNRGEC
light: EVQLVESGGGLVQPGGSLRLSCAASGFSLSTGGVGVGWIRQAPGKGLEWLALIDWADDKYYSPSLKSRLTISRDNSKNTLYLQLNSLRAEDTAVYYCARGGSDTVIGDWFAYWGQGTLVTVSSASTKGPSVFPLAPSSKSTSGGTAALGCLVKDYFPEPVTVSWNSGALTSGVHTFPAVLQSSGLYSLSSVVTVPSSSLGTQTYICNVNHKPSNTKVDKRVEPKSCDKTHTCPPCPAPELLGGPSVFLFPPKPKDTLMISRTPEVTCVVVDVSHEDPEVKFNWYVDGVEVHNAKTKPREEQYASTYRVVSVLTVLHQDWLNGKEYKCKVSNKALPAPIEKTISKAKGQPREPQVYTLPPSREEMTKNQVSLTCLVKGFYPSDIAVEWESNGQPENCYKTTPPVLDCDGSFFLYSKLTVDKSRWQQGNVFSCSVMHEALHNHYTQKSLSLSPGSGGGSEVQLVESGGGLVQPGGSLRLSCAASGYSISSGYYWGWIRQAPGKCLEWIGIIYPSGGGTNYAQKFQGRVTISRDNSKNTLYLQLNSLRAEDTAVYYCARGGGLGFDYWGQGTLVTVSSGGGGSGGGGSGGGGSGGGGSDIQLTQSPSSLSASVGDRVTITCRASQSIPSFLNWYQQKPGKAPKLLIYAASSLQSGVPSRFSGSGSGTDFTLTISSLQPEDFATYYCQHYISWPRQFTFGCGTKVEIKR
notes: Morrison format: anti-CD137 Fab, anti-PDL1 scFv; IgG1 with N390C:S400'C and N297A; also called CD137 × PDL1 bispecific antibody, format TYF04
B3: TY22176 (bispecific antibody, human IgG1, kappa, N297A)
heavy: DIQLTQSPSSLSASVGDRVTITCRASQSIPSFLNWYQQKPGKAPKLLIYAASSLQSGVPSRFSGSGSGTDFTLTISSLQPEDFATYYCQHYISWPRQFTFGQGTKVEIKRTVAAPSVFIFPPSDEQLKSGTASVVCLLNNFYPREAKVQWKVDNALQSGNSQESVTEQDSKDSTYSLSSTLTLSKADYEKHKVYACEVTHQGLSSPVTKSFNRGEC
light: EVQLVESGGGLVQPGGSLRLSCAASGYSISSGYYWGWIRQAPGKGLEWIGIIYPSGGGTNYAQKFQGRVTISRDNSKNTLYLQLNSLRAEDTAVYYCARGGGLGFDYWGQGTLVTVSSASTKGPSVFPLAPSSKSTSGGTAALGCLVKDYFPEPVTVSWNSGALTSGVHTFPAVLQSSGLYSLSSVVTVPSSSLGTQTYICNVNHKPSNTKVDKRVEPKSCDKTHTCPPCPAPELLGGPSVFLFPPKPKDTLMISRTPEVTCVVVDVSHEDPEVKFNWYVDGVEVHNAKTKPREEQYASTYRVVSVLTVLHQDWLNGKEYKCKVSNKALPAPIEKTISKAKGQPREPQVYTLPPSREEMTKNQVSLTCLVKGFYPSDIAVEWESNGQPENCYKTTPPVLDCDGSFFLYSKLTVDKSRWQQGNVFSCSVMHEALHNHYTQKSLSLSPGSGGGSEVQLVESGGGLVQPGGSLRLSCAASGFSLSTGGVGVGWIRQAPGKCLEWLALIDWADDKYYSPSLKSRLTISRDNSKNTLYLQLNSLRAEDTAVYYCARGGSDTVIGDWFAYWGQGTLVTVSSGGGGSGGGGSGGGGSGGGGSDIQLTQSPSSLSASVGDRVTITCRASQSIGSYLAWYQQKPGKAPKLLIYDASNLETGVPSRFSGSGSGTDFTLTISSLQPEDFATYYCQQGYYLWTFGCGTKVEIKR
notes: Morrison format: anti-PDL1 Fab, anti-CD137 scFv; IgG1 with N390C:S400'C and N297A; also called PDL1 × CD137 bispecific antibody, format TYF04
B4: TY22165 (bispecific antibody, human IgG4 S228P, kappa)
heavy: B3 heavy
light: EVQLVESGGGLVQPGGSLRLSCAASGYSISSGYYWGWIRQAPGKGLEWIGIIYPSGGGTNYAQKFQGRVTISRDNSKNTLYLQLNSLRAEDTAVYYCARGGGLGFDYWGQGTLVTVSSASTKGPSVFPLAPCSRSTSESTAALGCLVKDYFPEPVTVSWNSGALTSGVHTFPAVLQSSGLYSLSSVVTVPSSSLGTKTYTCNVDHKPSNTKVDKRVESKYGPPCPPCPAPEFLGGPSVFLFPPKPKDTLMISRTPEVTCVVVDVSQEDPEVQFNWYVDGVEVHNAKTKPREEQFNSTYRVVSVLTVLHQDWLNGKEYKCKVSNKGLPSSIEKTISKAKGQPREPQVYTLPPSQEEMTKNQVSLTCLVKGFYPSDIAVEWESNGQPENCYKTTPPVLDCDGSFFLYSRLTVDKSRWQEGNVFSCSVMHEALHNHYTQKSLSLSLGSGGGSEVQLVESGGGLVQPGGSLRLSCAASGFSLSTGGVGVGWIRQAPGKCLEWLALIDWADDKYYSPSLKSRLTISRDNSKNTLYLQLNSLRAEDTAVYYCARGGSDTVIGDWFAYWGQGTLVTVSSGGGGSGGGGSGGGGSGGGGSDIQLTQSPSSLSASVGDRVTITCRASQSIGSYLAWYQQKPGKAPKLLIYDASNLETGVPSRFSGSGSGTDFTLTISSLQPEDFATYYCQQGYYLWTFGCGTKVEIKR
notes: Morrison format: anti-PDL1 Fab, anti-CD137 scFv; IgG4(S228P) with N390C:S400'C; also called PDL1 × CD137 bispecific antibody, format TYF07
B5: TY22359 (bispecific antibody, human IgG1, kappa, N297A)
heavy: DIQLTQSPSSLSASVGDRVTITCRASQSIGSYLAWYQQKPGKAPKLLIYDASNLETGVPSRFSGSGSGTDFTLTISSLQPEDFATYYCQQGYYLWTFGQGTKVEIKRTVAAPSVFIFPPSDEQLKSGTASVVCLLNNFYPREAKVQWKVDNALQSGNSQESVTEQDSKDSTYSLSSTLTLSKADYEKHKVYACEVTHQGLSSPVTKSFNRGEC
light: EVQLVESGGGLVQPGGSLRLSCAASGFSLSTGGVGVGWIRQAPGKGLEWLALIDWADDKYYSPSLKSRLTISRDNSKNTLYLQLNSLRAEDTAVYYCARGGSDTVIGDWFAYWGQGTLVTVSSASTKGPSVFPLAPSSKSTSGGTAALGCLVKDYFPEPVTVSWNSGALTSGVHTFPAVLQSSGLYSLSSVVTVPSSSLGTQTYICNVNHKPSNTKVDKRVEPKSCDKTHTCPPCPAPELLGGPSVFLFPPKPKDTLMISRTPEVTCVVVDVSHEDPEVKFNWYVDGVEVHNAKTKPREEQYASTYRVVSVLTVLHQDWLNGKEYKCKVSNKALPAPIEKTISKAKGQPREPQVYTLPPSREEMTKNQVSLTCLVKGFYPSDIAVEWESNGQPENCYKTTPPVLDCDGSFFLYSKLTVDKSRWQQGNVFSCSVMHEALHNHYTQKSLSLSPGSGGGSGGGGSEVQLVESGGGLVQPGGSLRLSCAASGYSISSGYYWGWIRQAPGKCLEWIGIIYPSGGGTNYAQKFQGRVTISRDNSKNTLYLQLNSLRAEDTAVYYCARGGGLGFDYWGQGTLVTVSSGGGGSGGGGSGGGGSGGGGSDIQLTQSPSSLSASVGDRVTITCRASQSIPSFLNWYQQKPGKAPKLLIYAASSLQSGVPSRFSGSGSGTDFTLTISSLQPEDFATYYCQHYISWPRQFTFGCGTKVEIKR
notes: Morrison format: anti-CD137 Fab, anti-PDL1 scFv; also called CD137 × PDL1 bispecific antibody, format TYF05; Format 5
B6: TY22166 (bispecific antibody, human IgG4 S228P, kappa)
heavy: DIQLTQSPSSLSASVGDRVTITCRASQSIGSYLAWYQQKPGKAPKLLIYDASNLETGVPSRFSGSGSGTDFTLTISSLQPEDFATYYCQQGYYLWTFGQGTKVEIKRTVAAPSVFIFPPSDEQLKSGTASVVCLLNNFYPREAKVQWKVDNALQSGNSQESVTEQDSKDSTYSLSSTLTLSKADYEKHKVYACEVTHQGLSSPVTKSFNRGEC
light: EVQLVESGGGLVQPGGSLRLSCAASGFSLSTGGVGVGWIRQAPGKGLEWLALIDWADDKYYSPSLKSRLTISRDNSKNTLYLQLNSLRAEDTAVYYCARGGSDTVIGDWFAYWGQGTLVTVSSASTKGPSVFPLAPCSRSTSESTAALGCLVKDYFPEPVTVSWNSGALTSGVHTFPAVLQSSGLYSLSSVVTVPSSSLGTKTYTCNVDHKPSNTKVDKRVESKYGPPCPPCPAPEFLGGPSVFLFPPKPKDTLMISRTPEVTCVVVDVSQEDPEVQFNWYVDGVEVHNAKTKPREEQFNSTYRVVSVLTVLHQDWLNGKEYKCKVSNKGLPSSIEKTISKAKGQPREPQVYTLPPSQEEMTKNQVSLTCLVKGFYPSDIAVEWESNGQPENCYKTTPPVLDCDGSFFLYSRLTVDKSRWQEGNVFSCSVMHEALHNHYTQKSLSLSLGSGGGSEVQLVESGGGLVQPGGSLRLSCAASGYSISSGYYWGWIRQAPGKCLEWIGIIYPSGGGTNYAQKFQGRVTISRDNSKNTLYLQLNSLRAEDTAVYYCARGGGLGFDYWGQGTLVTVSSGGGGSGGGGSGGGGSGGGGSDIQLTQSPSSLSASVGDRVTITCRASQSIPSFLNWYQQKPGKAPKLLIYAASSLQSGVPSRFSGSGSGTDFTLTISSLQPEDFATYYCQHYISWPRQFTFGCGTKVEIKR
notes: Morrison format: anti-CD137 Fab, anti-PDL1 scFv; IgG4(S228P) with N390C:S400'C; also called CD137 × PDL1 bispecific antibody, format TYF07

For orientation: Kd means the concentration at which binding is half-saturated. Low values mean higher affinity, high ones lower affinity.

For the first experiment, the target named is T1, Human PDL1 (SPR analyte) (human, UniProt Q9NZQ7 19-238, limits assumed).
T1 construct: also called PDL1H
T1 sequence (Q9NZQ7 19-238 limits assumed): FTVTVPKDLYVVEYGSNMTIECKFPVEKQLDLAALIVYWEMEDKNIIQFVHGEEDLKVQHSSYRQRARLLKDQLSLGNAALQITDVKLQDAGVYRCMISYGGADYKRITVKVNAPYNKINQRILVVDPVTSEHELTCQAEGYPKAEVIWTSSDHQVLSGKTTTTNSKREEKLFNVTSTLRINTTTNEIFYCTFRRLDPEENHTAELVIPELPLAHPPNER
Nature of the experiment: SPR (Biacore T200), antibody captured by anti-human IgG on CM5 chip, antigen injected as analyte, 1:1 Langmuir fit. As for the experimental part: (§1) Biacore T200 (GE Healthcare) was used as a high performance system for real-time biomolecular interaction analysis, using surface plasmon resonance technology (“SPR”). During the measurement, anti-human IgG monoclonal antibody from the Human Antibody Capture Kit provided by Biacore was immobilized on CM5 chips, and IgG sample was injected onto sensor chip. Analytes were injected onto IgG captured flow cell for binding kinetic analysis in HBS-EP buffer.
Background: SPR reads the build-up and loss of mass on a sensor chip optically.
On to B1, for which the Kd was 40.3 nM.
Still for that read-out and setting: the same measure for B2: 33.4 nM.
Same read-out and setting: the same measure for B3: 8.1 nM; for B4: 7.7 nM.
The molecule B5 displayed a Kd of 29.8 nM. This Kd is about 3.9-fold higher than that of the molecule before.
The molecule B6 displayed a dissociation constant Kd of 42 nM.

A further experiment has as its target T2, Human CD137 (SPR analyte) (human, UniProt Q07011 24-186, limits assumed).
T2 construct: also called CD137H
Described as above. As for the experimental part:
as §1
B1 came in with a Kd of 2.8 nM.
Same read-out and setting: the value for B2 was 7 nM; that for B3 was 7.1 nM.
As for B4, the Kd worked out at 5.2 nM.
Same read-out and setting: the value for B5 was 2.7 nM; that for B6 was 3 nM.
